Data taken from patent US20200093883A1 (XIGEN INFLAMMATION, published 2020).
Square brackets hold non-standard residues; d marks the D form. Ends that are not written are not given here.

Target: c-Jun N-terminal kinase (JNK) in primary mouse cortical neurons (mouse)
Assay: cell-based or functional assay

B1: JNK inhibitor according to SEQ ID NO: 172 ("XG-104") (peptide)
peptide: [dR]KKR[dR]QRR[dR]RP[dK]RP[dA]TLNL[dF]-NH2
modifications: N-terminus assumed
SMILES: CC(C)C[C@H](NC(=O)[C@H](CC(N)=O)NC(=O)[C@H](CC(C)C)NC(=O)[C@@H](NC(=O)[C@@H](C)NC(=O)[C@@H]1CCCN1C(=O)[C@H](CCCNC(=N)N)NC(=O)[C@@H](CCCCN)NC(=O)[C@@H]1CCCN1C(=O)[C@H](CCCNC(=N)N)NC(=O)[C@@H](CCCNC(=N)N)NC(=O)[C@H](CCCNC(=N)N)NC(=O)[C@H](CCCNC(=N)N)NC(=O)[C@H](CCC(N)=O)NC(=O)[C@@H](CCCNC(=N)N)NC(=O)[C@H](CCCNC(=N)N)NC(=O)[C@H](CCCCN)NC(=O)[C@H](CCCCN)NC(=O)[C@H](N)CCCNC(=N)N)[C@@H](C)O)C(=O)N[C@H](Cc1ccccc1)C(N)=O
  JNK activity (ratio pJNK/JNK, immunoblot), neurons exposed to 2 µM Aβ42, pre-treatment with 5 µM XG-104: decrease: 29.2%
  JNK activity (ratio pJNK/JNK, immunoblot), neurons exposed to 2 µM Aβ42, pre-treatment with 10 µM XG-104: decrease: 60%
  JNK activity (ratio pJNK/JNK, immunoblot), neurons exposed to 25 µM Aβ42, pre-treatment with 5 µM XG-104: decrease: 17.5%
  JNK activity (ratio pJNK/JNK, immunoblot), neurons exposed to 25 µM Aβ42, pre-treatment with 10 µM XG-104: decrease: 59.6%
